Patent publication WO2014084859A1
Each block holds one molecule with its values, some of them ahead of it.

Experiments:
[1] = molecular target: TMEM16A-GFP fusion protein on HEK293 stable cells (UniProt Q5XXA6); assay: flow cytometry on HEK293-TMEM16A cells
[2] = molecular target: SP31 ab64085; assay: peptide blocking of SP31 ab64085, western blot of TMEM16A
[3] = molecular target: T1, peptide 44 (linear 15-mer of the ECD1-3 library) (human); assay: peptide microarray (RepliTope), linear 15-mer
T1 sequence (peptide): VQISRYKDYREPPWS

[4] = molecular target: T2, peptide 45 (linear 15-mer of the ECD1-3 library) (human); assay: peptide microarray (RepliTope), linear 15-mer
T2 sequence (peptide): SRYKDYREPPWSENK

[5] = molecular target: T3, peptide 46 (linear 15-mer of the ECD1-3 library) (human); assay: peptide microarray (RepliTope), linear 15-mer
T3 sequence (peptide): KDYREPPWSENKYDI

[6] = molecular target: peptide 44 (cyclic, flanked by cysteines, second library) (human); assay: peptide microarray (RepliTope), cyclic peptide
[7] = molecular target: peptide 45 (cyclic, flanked by cysteines, second library) (human); assay: peptide microarray (RepliTope), cyclic peptide
[8] = molecular target: peptide 46 (cyclic, flanked by cysteines, second library) (human); assay: peptide microarray (RepliTope), cyclic peptide

Sequence of UniProt Q5XXA6 (Q5XXA6 whole entry, the tested form may be a part): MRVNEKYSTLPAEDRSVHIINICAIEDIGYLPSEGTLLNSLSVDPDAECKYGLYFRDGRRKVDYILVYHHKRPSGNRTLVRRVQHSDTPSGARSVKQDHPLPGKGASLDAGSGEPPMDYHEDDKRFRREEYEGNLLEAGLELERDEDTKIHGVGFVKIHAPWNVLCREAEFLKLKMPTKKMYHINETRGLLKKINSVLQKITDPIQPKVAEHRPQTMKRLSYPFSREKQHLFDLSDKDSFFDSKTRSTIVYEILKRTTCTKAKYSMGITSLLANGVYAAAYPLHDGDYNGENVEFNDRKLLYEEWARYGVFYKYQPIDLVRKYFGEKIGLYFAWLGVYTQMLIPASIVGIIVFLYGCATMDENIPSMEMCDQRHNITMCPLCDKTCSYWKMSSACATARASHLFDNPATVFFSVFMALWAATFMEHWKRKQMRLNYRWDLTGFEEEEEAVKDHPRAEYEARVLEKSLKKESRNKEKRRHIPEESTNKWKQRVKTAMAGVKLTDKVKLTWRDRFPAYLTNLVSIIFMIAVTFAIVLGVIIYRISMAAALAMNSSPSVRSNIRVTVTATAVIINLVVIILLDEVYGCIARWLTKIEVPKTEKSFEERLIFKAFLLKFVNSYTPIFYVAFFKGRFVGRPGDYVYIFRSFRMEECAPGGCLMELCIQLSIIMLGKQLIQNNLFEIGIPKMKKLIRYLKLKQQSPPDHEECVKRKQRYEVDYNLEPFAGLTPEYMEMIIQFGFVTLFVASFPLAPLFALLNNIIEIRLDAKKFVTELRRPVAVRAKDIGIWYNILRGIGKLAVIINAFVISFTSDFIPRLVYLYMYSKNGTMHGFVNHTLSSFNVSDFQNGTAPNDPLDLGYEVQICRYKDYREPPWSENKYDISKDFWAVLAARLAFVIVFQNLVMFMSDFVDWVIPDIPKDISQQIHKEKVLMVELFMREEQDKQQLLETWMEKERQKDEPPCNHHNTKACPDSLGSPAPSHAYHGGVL

median fluorescence intensity [1]: 93
Molecule: isotype control antibody (flow cytometry with 12E11)

peptide concentration at which pre-incubation blocked the western blot signal [2]: 0.01 µg/mL
Molecule: DHEECVKRKQRYEVDYNLE [Peptide #2]

signal over background signal (after subtraction of the signals of the unrelated antibody) [3]: 3 times | signal over background signal (after subtraction of the signals of the unrelated antibody) [4]: > 3 times | signal (AU, arbitrary unit) [5]: 15000 AU | signal over background signal (after subtraction of the signals of the unrelated antibody) [5]: > 3 times | signal over background signal (after subtraction of the signals of the unrelated antibody) [6]: > 3 times | signal over background signal (after subtraction of the signals of the unrelated antibody) [7]: > 3 times | signal (AU, arbitrary unit) [8]: 15000 AU | signal over background signal (after subtraction of the signals of the unrelated antibody) [8]: > 3 times
B1: 12E11 (antibody, V domains shown)
VH: QVQLKESGPGLVQPSQTLTLTCTVSGFSLSNYDMHWVRQSPGKGLDWMGVIWGNGKTQYNSGLTSRLSISRDTSKSQVFLKMNSLQTEDTAIYFCTRSGYYYDGSYYSLFDYWGQGVMVTVSS
VL: DVVLTQTPPTLSATIGQSVSISCRSSQSLLHSNGNTYLNWLLQRPGQPPQLLIYLVSRLESGVPNRFSGSGSGTDFTLKISGVEAEDLGVYYCVQSTHAPAFGGGTKLELK
